This note sets out measurements from paper PMC7024214.

This experiment deals with elastase (UniProt P00772).

tutuilamide B (peptide) registered an inhibition of the activity of elastase (IC50) of 3.6 nM.
To tutuilamide A (peptide) belongs 4 nM.
